The labels stand for the following.
B1: Antibody 11 (SS6V11-E7) (antibody, V domains shown)
VH: QVQLQESGPGLVKPSETLSLTCTVSGGFIGPHYWSWVRQPPGKGLEWIGYIYISGSTNYNPSLKSRLTISVDMSKSQFSLTLSSATAADTAVYYCARGGGYLETGPFEYWGQGTLVTVSS
VL: DIVMTQSPLSLPVTPGEPASISCRSSQSLLQNNGYNYLAWYLQKPGQSPQLLIYLSSTRASGVPDRFSGSGSGTDFTLKISRVEAEDVGVYYCMQSLQIPGTFGQGTRLEIK
B2: Antibody 20 (SS6V20-F5) (antibody, V domains shown)
VH: QVQLQESGPGLVKPSETLSLTCTVSGGSIIGYYWSWIRQPPGKGLEWIGYIYFSANTNYNPSLKSRVTMSVDMSKKQFSLKLRSVTAADTAVYYCARGGGYLETGPLDFWGQGILVTVSS
VL: B1 VL with L30M, N32L, K44R, S56G, S81T, S96G
B3: Antibody 13 (SS6V13-F1) (antibody, V domains shown)
VH: QVQLQESGPGLVKPSETLSLTCSVSGVSILGSYWGWIRQPPGTGLQWIGYIYFSENTNYNPSLQSRVTMSLDTSKNLLSLKLSSVTAADTAVYYCARGGGYLETGPFDSWGQGTLVTVSS
VL: B1 VL with S28G, L30V, N32S, S56G, T58N, S96G, I99T

Numbering of substitutions follows the chain as printed. Where “and” joins values, the source holds several entries; their conditions need not be identical. Equal values may be shown once.

The first assay deals with WIV-1 full-length spike (SC1r-CoV WIV-1). Briefly: cell-based or functional assay.
Take B1: the “pseudovirus neutralization NT50” value was < 10 ng/ml and < 0.067 nM.
With B2, the “pseudovirus neutralization NT50” value was < 10 ng/ml and < 0.067 nM.
As to B3, the “pseudovirus neutralization NT50” value was < 10 ng/ml and < 0.067 nM.

A further assay deals with SARS-COV-2 Wuhan-hu-1 (ancestral) full-length spike (SARS-CoV-2). Briefly: cell-based or functional assay.
With B1, the “pseudovirus neutralization NT50” value is < 10 ng/ml and < 0.067 nM.
Same read-out and setting: as for B2, the figure is < 10 ng/ml and < 0.067 nM; as for B3, < 10 ng/ml and < 0.067 nM.

The next assay addresses SARS-COV-1 full-length spike (SARS-CoV). Briefly: cell-based or functional assay.
Regarding B1, the “pseudovirus neutralization NT50” value is < 10 ng/ml and < 0.067 nM.
Consider B2, for which the “pseudovirus neutralization NT50” value was < 10 ng/ml and < 0.067 nM.
Take B3: the “pseudovirus neutralization NT50” value was < 10 ng/ml and < 0.067 nM.

The values above are taken from patent publication US20240254204A1 (NATIONAL UNIVERSITY OF SINGAPORE, published 2024).
